Test results published in US20220251148A1.

Each binder was assayed against purified MHC (MHC II molecules purified by affinity chromatography) (assay: competition with a radiolabelled known MHC binding peptide for purified MHC).

Row | IC50 [µM] | Binder
1 | 11.2 | LQLQPFWQPKLPGPQ [P1g (SEQ ID NO: 38), modified alpha gliadin 15-mer peptide]
2 | 3.75 | KLPYPQGRLPGPQPQ [P2g (SEQ ID NO: 43), modified alpha gliadin 15-mer peptide]
3 | 1.99 | PYSQPESPYMQPQPF [P3d (SEQ ID NO: 47), modified alpha gliadin 15-mer peptide]
4 | 0.879 | PYPHPWLRGPQPQPF [P3f (SEQ ID NO: 48), modified alpha gliadin 15-mer peptide]
5 | 5.44 | LQLQPFDQPRLPWPQ [P1f (SEQ ID NO: 37), modified alpha gliadin 15-mer peptide]
6 | 2.99 | PYPHPRLPYTQPQPF [P3c (SEQ ID NO: 46), modified alpha gliadin 15-mer peptide]
